Test results from patent publication US20150344570A1 (published 2015).

T1: FcγRIIb (human, UniProt P31994 43-217)
T1 construct: extracellular domain; Soluble extracellular domain with C-terminal His tag, used as analyte; also called FcgRIIb; CD32B; not shown: His tag at the C terminus
T1 sequence (looked up): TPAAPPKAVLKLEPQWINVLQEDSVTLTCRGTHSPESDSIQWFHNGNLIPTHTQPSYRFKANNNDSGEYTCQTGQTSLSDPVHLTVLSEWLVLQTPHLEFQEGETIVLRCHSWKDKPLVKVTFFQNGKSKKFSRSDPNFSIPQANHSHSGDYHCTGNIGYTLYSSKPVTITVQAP

T2: FcγRIIb extracellular domain with C-terminal His tag (human, UniProt P31994 43-217)
T2 construct: extracellular domain; also called 2b; FcgRIIb; not shown: His tag at the C terminus
T2 sequence (looked up): T1 sequence (looked up)

B1: GpH7-A5/GpH7-B3 variant S337_01G/GpL16-k0 (antibody, human IgG1, kappa)
heavy 1: not shown
heavy 2: not shown
light: DIVMTQSPLSLPVTPGEPASISCQASESLVHSNRNTYLHWYLQKPGQSPQLLIYKVSNRFSGVPDRFSGSGSGTDFTLKISRVEAEDVGVYYCSQNTHVPPTFGQGTKVEIERTVAAPSVFIFPPSDEQLKSGTASVVCLLNNFYPREAKVQWKVDNALQSGNSQESVTEQDSKDSTYSLSSTLTLSKADYEKHKVYACEVTHQGLSSPVTKSFNRGEC
notes: He Ab: mutation in one H chain only; also called He Ab
B2: GpH7-A5/GpH7-B3 variant S337_02A/GpL16-k0 (antibody, human IgG1, kappa)
heavy 1: not shown
heavy 2: not shown
light: B1 light
notes: as for B1
B3: GpH7-A5/GpH7-B3 variant S337_03V/GpL16-k0 (antibody, human IgG1, kappa)
heavy 1: not shown
heavy 2: not shown
light: B1 light
notes: as for B1
B4: GpH7-A5/GpH7-B3 variant S337_04F/GpL16-k0 (antibody, human IgG1, kappa)
heavy 1: not shown
heavy 2: not shown
light: B1 light
notes: as for B1
B5: GpH7-A5/GpH7-B3 variant S337_06M/GpL16-k0 (antibody, human IgG1, kappa)
heavy 1: not shown
heavy 2: not shown
light: B1 light
notes: as for B1
B6: GpH7-A5/GpH7-B3 variant S337_11K/GpL16-k0 (antibody, human IgG1, kappa)
heavy 1: not shown
heavy 2: not shown
light: B1 light
notes: as for B1
B7: GpH7-A5/GpH7-B3 variant S337_12R/GpL16-k0 (antibody, human IgG1, kappa)
heavy 1: not shown
heavy 2: not shown
light: B1 light
notes: as for B1
B8: GpH7-A5/GpH7-B3 variant S337_19Q/GpL16-k0 (antibody, human IgG1, kappa)
heavy 1: not shown
heavy 2: not shown
light: B1 light
notes: as for B1
B9: GpH7-A5/GpH7-B3 variant Y300_02A/GpL16-k0 (antibody, human IgG1, kappa)
heavy 1: not shown
heavy 2: not shown
light: B1 light
notes: as for B1
B10: GpH7-A5/GpH7-B3 variant Y300_03V/GpL16-k0 (antibody, human IgG1, kappa)
heavy 1: not shown
heavy 2: not shown
light: B1 light
notes: as for B1
B11: GpH7-A5/GpH7-B3 variant Y300_05P/GpL16-k0 (antibody, human IgG1, kappa)
heavy 1: not shown
heavy 2: not shown
light: B1 light
notes: as for B1
B12: GpH7-A5/GpH7-B3 variant Y300_06M/GpL16-k0 (antibody, human IgG1, kappa)
heavy 1: not shown
heavy 2: not shown
light: B1 light
notes: as for B1
B13: GpH7-A5/GpH7-B3 variant Y300_07I/GpL16-k0 (antibody, human IgG1, kappa)
heavy 1: not shown
heavy 2: not shown
light: B1 light
notes: as for B1
B14: GpH7-A5/GpH7-B3 variant Y300_08L/GpL16-k0 (antibody, human IgG1, kappa)
heavy 1: not shown
heavy 2: not shown
light: B1 light
notes: as for B1
B15: GpH7-A5/GpH7-B3 variant Y300_09D/GpL16-k0 (antibody, human IgG1, kappa)
heavy 1: not shown
heavy 2: not shown
light: B1 light
notes: as for B1
B16: GpH7-A5/GpH7-B3 variant Y300_11K/GpL16-k0 (antibody, human IgG1, kappa)
heavy 1: not shown
heavy 2: not shown
light: B1 light
notes: as for B1
B17: GpH7-A5/GpH7-B3 variant Y300_12R/GpL16-k0 (antibody, human IgG1, kappa)
heavy 1: not shown
heavy 2: not shown
light: B1 light
notes: as for B1
B18: GpH7-A5/GpH7-B3 variant Y300_13S/GpL16-k0 (antibody, human IgG1, kappa)
heavy 1: not shown
heavy 2: not shown
light: B1 light
notes: as for B1
B19: GpH7-A5/GpH7-B3 variant Y300_14T/GpL16-k0 (antibody, human IgG1, kappa)
heavy 1: not shown
heavy 2: not shown
light: B1 light
notes: as for B1
B20: GpH7-A5/GpH7-B3 variant Y300_16H/GpL16-k0 (antibody, human IgG1, kappa)
heavy 1: not shown
heavy 2: not shown
light: B1 light
notes: as for B1
B21: GpH7-A5/GpH7-B3 variant Y300_20W/GpL16-k0 (antibody, human IgG1, kappa)
heavy 1: not shown
heavy 2: not shown
light: B1 light
notes: as for B1
B22: GpH7-A5/GpH7-B3 variant A327_01G/GpL16-k0 (antibody, human IgG1, kappa)
heavy 1: not shown
heavy 2: not shown
light: B1 light
notes: IgG1, anti-glypican-3; also called He Ab
B23: GpH7-A5/GpH7-B3 variant H268_01G/GpL16-k0 (antibody, human IgG1, kappa)
heavy 1: not shown
heavy 2: not shown
light: B1 light
notes: as for B22
B24: GpH7-A5/GpH7-B3 variant H268_03V/GpL16-k0 (antibody, human IgG1, kappa)
heavy 1: not shown
heavy 2: not shown
light: B1 light
notes: as for B22
B25: GpH7-A5/GpH7-B3 variant H268_05P/GpL16-k0 (antibody, human IgG1, kappa)
heavy 1: not shown
heavy 2: not shown
light: B1 light
notes: as for B22
B26: GpH7-A5/GpH7-B3 variant H268_15Y/GpL16-k0 (antibody, human IgG1, kappa)
heavy 1: not shown
heavy 2: not shown
light: B1 light
notes: as for B22
B27: GpH7-A5/GpH7-B3 variant H268_20W/GpL16-k0 (antibody, human IgG1, kappa)
heavy 1: not shown
heavy 2: not shown
light: B1 light
notes: as for B22
B28: GpH7-A5/GpH7-B3 variant K326_16H/GpL16-k0 (antibody, human IgG1, kappa)
heavy 1: not shown
heavy 2: not shown
light: B1 light
notes: as for B22
B29: GpH7-A5/GpH7-B3 variant K326_20W/GpL16-k0 (antibody, human IgG1, kappa)
heavy 1: not shown
heavy 2: not shown
light: B1 light
notes: as for B22
B30: GpH7-A5/GpH7-B3 variant L235_09D/GpL16-k0 (antibody, human IgG1, kappa)
heavy 1: not shown
heavy 2: not shown
light: B1 light
notes: as for B22
B31: GpH7-A5/GpH7-B3 variant N325_01G/GpL16-k0 (antibody, human IgG1, kappa)
heavy 1: not shown
heavy 2: not shown
light: B1 light
notes: as for B22
B32: GpH7-A5/GpH7-B3 variant P238_03V/GpL16-k0 (antibody, human IgG1, kappa)
heavy 1: not shown
heavy 2: not shown
light: B1 light
notes: as for B22
B33: GpH7-A5/GpH7-B3 variant P238_04F/GpL16-k0 (antibody, human IgG1, kappa)
heavy 1: not shown
heavy 2: not shown
light: B1 light
notes: as for B22
B34: GpH7-A5/GpH7-B3 variant P238_06M/GpL16-k0 (antibody, human IgG1, kappa)
heavy 1: not shown
heavy 2: not shown
light: B1 light
notes: as for B22
B35: GpH7-A5/GpH7-B3 variant P238_08L/GpL16-k0 (antibody, human IgG1, kappa)
heavy 1: not shown
heavy 2: not shown
light: B1 light
notes: as for B22
B36: GpH7-A5/GpH7-B3 variant P238_15Y/GpL16-k0 (antibody, human IgG1, kappa)
heavy 1: not shown
heavy 2: not shown
light: B1 light
notes: as for B22
B37: GpH7-A5/GpH7-B3 variant P238_16H/GpL16-k0 (antibody, human IgG1, kappa)
heavy 1: not shown
heavy 2: not shown
light: B1 light
notes: as for B22

Target: T1, FcγRIIb
Experiment: SPR (Biacore), captured antibody, FcγR as analyte, relative binding

Row | Binder | He/Con_2b
1 | B1 | 92 % of GpH7-A5/GpH7-B3/GpL16-k0
2 | B2 | 97.2 % of GpH7-A5/GpH7-B3/GpL16-k0
3 | B3 | 98.9 % of GpH7-A5/GpH7-B3/GpL16-k0
4 | B4 | 97.8 % of GpH7-A5/GpH7-B3/GpL16-k0
5 | B5 | 96.7 % of GpH7-A5/GpH7-B3/GpL16-k0
6 | B6 | 94.3 % of GpH7-A5/GpH7-B3/GpL16-k0
7 | B7 | 99.5 % of GpH7-A5/GpH7-B3/GpL16-k0
8 | B8 | 99.7 % of GpH7-A5/GpH7-B3/GpL16-k0
9 | B9 | 69.2 % of GpH7-A5/GpH7-B3/GpL16-k0
10 | B10 | 73.9 % of GpH7-A5/GpH7-B3/GpL16-k0
11 | B11 | 7.3 % of GpH7-A5/GpH7-B3/GpL16-k0
12 | B12 | 84.3 % of GpH7-A5/GpH7-B3/GpL16-k0
13 | B13 | 74.5 % of GpH7-A5/GpH7-B3/GpL16-k0
14 | B14 | 73.6 % of GpH7-A5/GpH7-B3/GpL16-k0
15 | B15 | 93.2 % of GpH7-A5/GpH7-B3/GpL16-k0
16 | B16 | 51.6 % of GpH7-A5/GpH7-B3/GpL16-k0
17 | B17 | 41.2 % of GpH7-A5/GpH7-B3/GpL16-k0
18 | B18 | 53.9 % of GpH7-A5/GpH7-B3/GpL16-k0
19 | B19 | 55.6 % of GpH7-A5/GpH7-B3/GpL16-k0
20 | B20 | 87 % of GpH7-A5/GpH7-B3/GpL16-k0
21 | B21 | 84.1 % of GpH7-A5/GpH7-B3/GpL16-k0

Target: T3, FcγRIa (human, UniProt P12314 16-292)
T3 construct: extracellular domain; Soluble extracellular domain with C-terminal His tag, used as analyte; also called FcgRI; CD64; not shown: His tag at the C terminus
T3 sequence (P12314 16-292): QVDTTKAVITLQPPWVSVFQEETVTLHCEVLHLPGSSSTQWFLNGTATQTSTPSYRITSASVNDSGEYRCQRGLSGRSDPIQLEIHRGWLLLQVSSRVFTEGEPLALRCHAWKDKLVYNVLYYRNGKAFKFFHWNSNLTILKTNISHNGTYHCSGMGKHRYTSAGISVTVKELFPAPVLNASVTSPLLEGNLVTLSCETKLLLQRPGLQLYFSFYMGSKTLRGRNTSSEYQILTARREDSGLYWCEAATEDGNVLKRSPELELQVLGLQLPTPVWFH
Experiment: as above

Row | Binder | He/Con_1a
22 | B1 | 107 % of GpH7-A5/GpH7-B3/GpL16-k0
23 | B2 | 106 % of GpH7-A5/GpH7-B3/GpL16-k0
24 | B3 | 107 % of GpH7-A5/GpH7-B3/GpL16-k0
25 | B4 | 106 % of GpH7-A5/GpH7-B3/GpL16-k0
26 | B5 | 107 % of GpH7-A5/GpH7-B3/GpL16-k0
27 | B6 | 104 % of GpH7-A5/GpH7-B3/GpL16-k0
28 | B7 | 106 % of GpH7-A5/GpH7-B3/GpL16-k0
29 | B8 | 105 % of GpH7-A5/GpH7-B3/GpL16-k0
30 | B9 | 112 % of GpH7-A5/GpH7-B3/GpL16-k0
31 | B10 | 117 % of GpH7-A5/GpH7-B3/GpL16-k0
32 | B11 | 60.2 % of GpH7-A5/GpH7-B3/GpL16-k0
33 | B12 | 112 % of GpH7-A5/GpH7-B3/GpL16-k0
34 | B13 | 108 % of GpH7-A5/GpH7-B3/GpL16-k0
35 | B14 | 113 % of GpH7-A5/GpH7-B3/GpL16-k0
36 | B15 | 112 % of GpH7-A5/GpH7-B3/GpL16-k0
37 | B16 | 107 % of GpH7-A5/GpH7-B3/GpL16-k0
38 | B17 | 105 % of GpH7-A5/GpH7-B3/GpL16-k0
39 | B18 | 111 % of GpH7-A5/GpH7-B3/GpL16-k0
40 | B19 | 112 % of GpH7-A5/GpH7-B3/GpL16-k0
41 | B20 | 111 % of GpH7-A5/GpH7-B3/GpL16-k0
42 | B21 | 112 % of GpH7-A5/GpH7-B3/GpL16-k0

Target: T4, FcγRIIIa extracellular domain with C-terminal His tag (human, UniProt P08637 17-208)
T4 construct: extracellular domain; also called 3a; FcgRIIIa; not shown: His tag at the C terminus
T4 sequence (P08637 17-208): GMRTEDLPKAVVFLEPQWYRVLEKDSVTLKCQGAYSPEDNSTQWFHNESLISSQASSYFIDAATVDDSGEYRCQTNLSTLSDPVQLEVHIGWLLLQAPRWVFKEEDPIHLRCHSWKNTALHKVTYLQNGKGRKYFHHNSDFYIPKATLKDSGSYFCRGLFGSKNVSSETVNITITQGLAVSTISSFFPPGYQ
Experiment: SPR (Biacore), relative to GpH7-A5/GpH7-B3/GpL16-k0 = 100

Row | Binder | He/Con_3a
43 | B22 | 72.4 % (control = 100)
44 | B23 | 96.7 % (control = 100)
45 | B24 | 92.3 % (control = 100)
46 | B25 | 76.4 % (control = 100)
47 | B26 | 97.5 % (control = 100)
48 | B27 | 82.8 % (control = 100)
49 | B28 | 96.1 % (control = 100)
50 | B29 | 84.8 % (control = 100)
51 | B30 | 91.6 % (control = 100)
52 | B31 | 28 % (control = 100)
53 | B32 | 43.8 % (control = 100)
54 | B33 | 46.7 % (control = 100)
55 | B34 | 30.5 % (control = 100)
56 | B35 | 75.5 % (control = 100)
57 | B36 | 64.5 % (control = 100)
58 | B37 | 30.7 % (control = 100)

Target: T2, FcγRIIb extracellular domain with …
Experiment: as above

Row | Binder | He/Con_2b
59 | B22 | 116 % (control = 100)
60 | B23 | 144 % (control = 100)
61 | B24 | 114 % (control = 100)
62 | B25 | 116 % (control = 100)
63 | B26 | 106 % (control = 100)
64 | B27 | 111 % (control = 100)
65 | B28 | 119 % (control = 100)
66 | B29 | 148 % (control = 100)
67 | B30 | 106 % (control = 100)
68 | B31 | 101 % (control = 100)
69 | B32 | 120 % (control = 100)
70 | B33 | 312 % (control = 100)
71 | B34 | 174 % (control = 100)
72 | B35 | 204 % (control = 100)
73 | B36 | 218 % (control = 100)
74 | B37 | 115 % (control = 100)
